Measurements from patent US20240116985A1, “STAPLED PEPTIDES AND METHODS THEREOF” (priority 2020, published 2024).
Starred links: 1 amine or outer side, 2 acyl side, 3 side chain; linkers in the order of their positions; H or OH if unused. Positions of bridges follow the written chain, without caps; N, C: chain ends. Non-standard residues stand in square brackets, D forms with d. Primed or numbered codes have the meaning given here. *: point of attachment. B5(10) = 2-amino-2-(pent-4-en-1-yl)hept-6-enoic acid, bis(4-pentenyl)glycine, stitching residue bearing both staples, C=CCCCC(CCCC=C)(N[*:1])C(=O)[*:2]; PyrS2″ = (S)-3-amino-1-((pent-4-en-1-yloxy)carbonyl)pyrrolidine-3-carboxylic acid (stapling residue), C=CCCCOC(=O)N1CC[C@@](N[*:1])(C(=O)[*:2])C1; B5(5) = 2,2-bis(4-pentenyl)glycine, 2-amino-2-(pent-4-en-1-yl)hept-6-enoic acid (stitching residue), C=CCCCC(CCCC=C)(N[*:1])C(=O)[*:2]; PyrS2 = (S)-3-amino-1-((pent-4-en-1-yloxy)carbonyl)pyrrolidine-3-carboxylic acid, C=CCCCOC(=O)N1CC[C@@](N[*:1])(C(=O)[*:2])C1; B5(12) = 2-amino-2-(pent-4-en-1-yl)hept-6-enoic acid (two olefin side chains), C=CCCCC(CCCC=C)(N[*:1])C(=O)[*:2]; B5(19) = 2-amino-2-(pent-4-en-1-yl)hept-6-enoic acid (bis(4-pentenyl)glycine), C=CCCCC(CCCC=C)(N[*:1])C(=O)[*:2]; B5(3) = 2,2-bis(4-pentenyl)glycine (stitching residue), C=CCCCC(CCCC=C)(N[*:1])C(=O)[*:2]; Phe(2-Cl) = N[C@@H](Cc1ccccc1Cl)C(=O)O; 1Nal = N[C@@H](Cc1cccc2ccccc12)C(=O)O; Bta = N[C@@H](Cc1csc2ccccc12)C(=O)O; Lys(iPr) = CC(C)NCCCC[C@H](N)C(=O)O; αAllylPro = C=CC[C@@]1(C(=O)O)CCCN1; tBuAla = CC(C)(C)C[C@H](N)C(=O)O; 3Thi = N[C@@H](Cc1ccsc1)C(=O)O; Nle = CCCC[C@H](N)C(=O)O; iPr = CC(C)*

What follows are binders tested against full-length beta-Catenin (Uniprot ID P35222) (Homo sapiens (Human)) (UniProt P35222) (assay: fluorescence polarization competition; full-length beta-catenin, competitor 5FAM-TCF4 10-53 probe).
Target sequence in this assay (P35222 2-781 limits assumed): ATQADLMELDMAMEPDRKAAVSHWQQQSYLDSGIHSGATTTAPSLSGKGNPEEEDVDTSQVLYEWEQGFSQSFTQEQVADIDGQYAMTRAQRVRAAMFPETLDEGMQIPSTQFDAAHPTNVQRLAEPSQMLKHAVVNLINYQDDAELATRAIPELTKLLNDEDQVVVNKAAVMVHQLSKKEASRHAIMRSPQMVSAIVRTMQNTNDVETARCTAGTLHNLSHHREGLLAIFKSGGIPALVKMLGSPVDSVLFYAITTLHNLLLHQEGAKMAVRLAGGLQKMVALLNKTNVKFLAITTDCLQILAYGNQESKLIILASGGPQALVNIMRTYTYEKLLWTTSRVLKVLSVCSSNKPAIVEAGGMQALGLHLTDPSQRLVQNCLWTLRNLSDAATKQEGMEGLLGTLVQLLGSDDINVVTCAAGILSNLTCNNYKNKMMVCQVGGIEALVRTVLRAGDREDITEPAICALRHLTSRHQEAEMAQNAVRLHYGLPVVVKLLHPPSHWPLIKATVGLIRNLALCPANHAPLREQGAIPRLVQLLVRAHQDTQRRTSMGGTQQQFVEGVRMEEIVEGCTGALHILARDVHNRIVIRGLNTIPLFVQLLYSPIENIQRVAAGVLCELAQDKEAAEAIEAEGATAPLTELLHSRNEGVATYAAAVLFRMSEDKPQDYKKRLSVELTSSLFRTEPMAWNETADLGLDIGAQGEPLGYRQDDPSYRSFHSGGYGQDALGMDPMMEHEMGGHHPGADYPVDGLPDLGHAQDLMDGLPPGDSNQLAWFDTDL

Row | IC50 [nM] | Binder
1 | 5 | Ac-[αAllylPro]D[Nle][B5(19)]DDAAF[Nle][PyrS2][3Thi][Bta]Q-NH2 (staple 1-4, 4-11) [I-1401]
2 | 9 | Ac-[αAllylPro]D[Nle][B5(12)]DDAAF[Nle][PyrS2″]F[Bta]Q-NH2 (staple 1-4, 4-11) [I-1405]
3 | 113 | Ac-[αAllylPro]DL[B5(12)]DDAAF[Nle][PyrS2″]F[Bta]Q-NH2 (staple 1-4, 4-11) [I-1404]

These binders were tested against Bcat-Halo (UniProt P35222) (assay: NanoBRET Abs IC50, HEK293 cells, Bcat-Halo/TCF4-Luc; competitor TCF4-Luc).
Sequence of Bcat-Halo (P35222 whole entry): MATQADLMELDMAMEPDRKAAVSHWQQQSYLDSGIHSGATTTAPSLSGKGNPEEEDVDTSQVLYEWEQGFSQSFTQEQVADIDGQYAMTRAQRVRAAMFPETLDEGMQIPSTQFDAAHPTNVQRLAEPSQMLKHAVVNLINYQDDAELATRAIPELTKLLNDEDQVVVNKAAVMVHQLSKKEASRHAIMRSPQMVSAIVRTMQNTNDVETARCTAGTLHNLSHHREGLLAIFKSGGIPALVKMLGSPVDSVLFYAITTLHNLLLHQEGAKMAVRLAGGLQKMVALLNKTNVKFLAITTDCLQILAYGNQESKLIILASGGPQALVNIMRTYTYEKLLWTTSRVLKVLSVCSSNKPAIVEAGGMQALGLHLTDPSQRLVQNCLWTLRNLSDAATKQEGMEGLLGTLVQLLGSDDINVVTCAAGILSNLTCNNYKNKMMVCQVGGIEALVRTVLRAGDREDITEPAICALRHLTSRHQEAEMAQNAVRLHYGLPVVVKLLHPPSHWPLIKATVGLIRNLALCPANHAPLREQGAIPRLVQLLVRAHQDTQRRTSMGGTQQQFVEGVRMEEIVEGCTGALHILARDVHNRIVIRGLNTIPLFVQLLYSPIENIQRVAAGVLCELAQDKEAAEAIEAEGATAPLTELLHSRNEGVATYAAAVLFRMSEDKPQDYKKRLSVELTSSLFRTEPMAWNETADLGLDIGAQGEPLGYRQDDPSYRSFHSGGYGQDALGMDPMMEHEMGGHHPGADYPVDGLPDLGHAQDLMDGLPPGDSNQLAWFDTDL

Row | Binder | IC50 [nM]
4 | Ac-[αAllylPro]D[tBuAla][B5(3)]DDK(iPr)AFT[PyrS2″][Phe(2-Cl)][Bta]T-NH2 (staple 1-4, 4-11) [I-1273] | > 20000
5 | Ac-[αAllylPro]D[tBuAla][B5(3)]DDK(iPr)AFL[PyrS2″][Phe(2-Cl)][Bta]T-NH2 (staple 1-4, 4-11) [I-1276] | > 20000
6 | Ac-[αAllylPro]D[tBuAla][B5(3)]DDK(iPr)AFL[PyrS2″][Phe(2-Cl)][Bta]Q-NH2 (staple 1-4, 4-11) [I-1275] | 27800
7 | Ac-[αAllylPro]D[tBuAla][B5(5)]DDAAFK(iPr)[PyrS2][Phe(2-Cl)][Bta]T-NH2 (staple 1-4, 4-11) [I-1279] | 22900
8 | Ac-[αAllylPro]D[tBuAla][B5(3)]DTAAFT[PyrS2″][1Nal][Bta]S-NH2 (staple 1-4, 4-11) [I-1269] | 17600
9 | Ac-[αAllylPro]D[tBuAla][B5(5)]DDAAFK(iPr)[PyrS2][Phe(2-Cl)][Bta]Q-NH2 (staple 1-4, 4-11) [I-1278] | 18000
10 | Ac-[αAllylPro]D[tBuAla][B5(3)]DDK(iPr)AFL[PyrS2″][Phe(2-Cl)][Bta]L-NH2 (staple 1-4, 4-11) [I-1277] | > 20000

Now from value to binder:

Row | IC50 [nM] | Binder
11 | 38600 | Ac-[αAllylPro]D[tBuAla][B5(5)]DEAAFK(iPr)[PyrS2][Phe(2-Cl)][Bta]L-NH2 (staple 1-4, 4-11) [I-1283]
12 | 22200 | Ac-[αAllylPro]D[tBuAla][B5(5)]DEAAFK(iPr)[PyrS2][Phe(2-Cl)][Bta]Q-NH2 (staple 1-4, 4-11) [I-1281]
13 | 43100 | Ac-[αAllylPro]D[tBuAla][B5(5)]DEAAFK(iPr)[PyrS2][Phe(2-Cl)][Bta]T-NH2 (staple 1-4, 4-11) [I-1282]
14 | 24700 | Ac-[αAllylPro]D[tBuAla][B5(5)]DDAAFK(iPr)[PyrS2][Phe(2-Cl)][Bta]L-NH2 (staple 1-4, 4-11) [I-1280]

Each binder was assayed against Bcat-Halo (beta-catenin HaloTag construct expressed in HEK293 cells) (UniProt P35222) (assay: NanoBRET Abs IC50 in HEK293 cells; B-cat-Halo with competitor TCF4-Luc).
Sequence of Bcat-Halo (beta-catenin HaloTag construct expressed in HEK293 cells) (P35222 whole entry): as above

Row | IC50 [nM] | Binder
15 | 21400 | Ac-[αAllylPro]D[Nle][B5(19)]DDAAF[Nle][PyrS2][3Thi][Bta]Q-NH2 (staple 1-4, 4-11) [I-1401]
16 | 40100 | Ac-[αAllylPro]D[Nle][B5(12)]DDAAF[Nle][PyrS2″]F[Bta]Q-NH2 (staple 1-4, 4-11) [I-1405]
17 | 36800 | Ac-[αAllylPro]DL[B5(12)]DDAAF[Nle][PyrS2″]F[Bta]Q-NH2 (staple 1-4, 4-11) [I-1404]

The binders below were run against full-length beta-Catenin (Uniprot ID P35222) (Homo sapiens (Human)) (UniProt P35222) (assay: fluorescence polarization competition; full-length beta-catenin + 5FAM-TCF4(10-53) probe).
Target sequence in this assay (P35222 whole entry, one chain of several): as the sequence (P35222 whole entry) above

Row | Binder | EC50 [nM]
18 | Ac-[αAllylPro]D[tBuAla][B5(3)]DDK(iPr)AFT[PyrS2″][Phe(2-Cl)][Bta]T-NH2 (staple 1-4, 4-11) [I-1273] | 9
19 | Ac-[αAllylPro]D[tBuAla][B5(3)]DDK(iPr)AFL[PyrS2″][Phe(2-Cl)][Bta]T-NH2 (staple 1-4, 4-11) [I-1276] | 10
20 | Ac-[αAllylPro]D[tBuAla][B5(3)]DDK(iPr)AFL[PyrS2″][Phe(2-Cl)][Bta]Q-NH2 (staple 1-4, 4-11) [I-1275] | 9
21 | Ac-[αAllylPro]D[tBuAla][B5(5)]DDAAFK(iPr)[PyrS2][Phe(2-Cl)][Bta]T-NH2 (staple 1-4, 4-11) [I-1279] | 12
22 | Ac-[αAllylPro]D[tBuAla][B5(3)]DTAAFT[PyrS2″][1Nal][Bta]S-NH2 (staple 1-4, 4-11) [I-1269] | 173
23 | Ac-[αAllylPro]D[tBuAla][B5(5)]DDAAFK(iPr)[PyrS2][Phe(2-Cl)][Bta]Q-NH2 (staple 1-4, 4-11) [I-1278] | 10
24 | Ac-[αAllylPro]D[tBuAla][B5(3)]DDK(iPr)AFL[PyrS2″][Phe(2-Cl)][Bta]L-NH2 (staple 1-4, 4-11) [I-1277] | 17

The remaining lines, values ahead:

Row | EC50 [nM] | Binder
25 | 26 | Ac-[αAllylPro]D[tBuAla][B5(5)]DEAAFK(iPr)[PyrS2][Phe(2-Cl)][Bta]L-NH2 (staple 1-4, 4-11) [I-1283]
26 | 10 | Ac-[αAllylPro]D[tBuAla][B5(5)]DEAAFK(iPr)[PyrS2][Phe(2-Cl)][Bta]Q-NH2 (staple 1-4, 4-11) [I-1281]
27 | 34 | Ac-[αAllylPro]D[tBuAla][B5(5)]DEAAFK(iPr)[PyrS2][Phe(2-Cl)][Bta]T-NH2 (staple 1-4, 4-11) [I-1282]
28 | 22 | Ac-[αAllylPro]D[tBuAla][B5(5)]DDAAFK(iPr)[PyrS2][Phe(2-Cl)][Bta]L-NH2 (staple 1-4, 4-11) [I-1280]

What follows are binders tested against full-length beta-Catenin (Uniprot ID P35222) (Homo sapiens (Human)) (UniProt P35222) (assay: fluorescence polarization competition against 5FAM-TCF4(10-53) on full-length beta-catenin).
Target sequence in this assay (P35222 whole entry, one chain of several): as the sequence (P35222 whole entry) above

Row | Binder | IC50 [nM]
29 | Ac-[αAllylPro]D[tBuAla][B5(3)]DDK(iPr)AFT[PyrS2″][Phe(2-Cl)][Bta]T-NH2 (staple 1-4, 4-11) [I-1273] | 9
30 | Ac-[αAllylPro]D[tBuAla][B5(3)]DDK(iPr)AFL[PyrS2″][Phe(2-Cl)][Bta]T-NH2 (staple 1-4, 4-11) [I-1276] | 10
31 | Ac-[αAllylPro]D[tBuAla][B5(3)]DDK(iPr)AFL[PyrS2″][Phe(2-Cl)][Bta]Q-NH2 (staple 1-4, 4-11) [I-1275] | 9
32 | Ac-[αAllylPro]D[tBuAla][B5(5)]DDAAFK(iPr)[PyrS2][Phe(2-Cl)][Bta]T-NH2 (staple 1-4, 4-11) [I-1279] | 12
33 | Ac-[αAllylPro]D[tBuAla][B5(3)]DTAAFT[PyrS2″][1Nal][Bta]S-NH2 (staple 1-4, 4-11) [I-1269] | 173
34 | Ac-[αAllylPro]D[tBuAla][B5(5)]DDAAFK(iPr)[PyrS2][Phe(2-Cl)][Bta]Q-NH2 (staple 1-4, 4-11) [I-1278] | 10
35 | Ac-[αAllylPro]D[tBuAla][B5(3)]DDK(iPr)AFL[PyrS2″][Phe(2-Cl)][Bta]L-NH2 (staple 1-4, 4-11) [I-1277] | 17

Further lines, results first:

Row | IC50 [nM] | Binder
36 | 26 | Ac-[αAllylPro]D[tBuAla][B5(5)]DEAAFK(iPr)[PyrS2][Phe(2-Cl)][Bta]L-NH2 (staple 1-4, 4-11) [I-1283]
37 | 10 | Ac-[αAllylPro]D[tBuAla][B5(5)]DEAAFK(iPr)[PyrS2][Phe(2-Cl)][Bta]Q-NH2 (staple 1-4, 4-11) [I-1281]
38 | 34 | Ac-[αAllylPro]D[tBuAla][B5(5)]DEAAFK(iPr)[PyrS2][Phe(2-Cl)][Bta]T-NH2 (staple 1-4, 4-11) [I-1282]
39 | 22 | Ac-[αAllylPro]D[tBuAla][B5(5)]DDAAFK(iPr)[PyrS2][Phe(2-Cl)][Bta]L-NH2 (staple 1-4, 4-11) [I-1280]

What follows are binders tested against beta-catenin (Homo sapiens (Human)) (UniProt P35222) (assay: fluorescence polarization competition; full-length beta-catenin with 5FAM-TCF4(10-53) probe as competitor).
Sequence of beta-catenin (Homo sapiens (Human)) (P35222 whole entry): as above

Row | EC50 [nM] | Binder
40 | 5 | Ac-[αAllylPro]D[Nle][B5(19)]DDAAF[Nle][PyrS2][3Thi][Bta]Q-NH2 (staple 1-4, 4-11) [I-1401]
41 | 9 | Ac-[αAllylPro]D[Nle][B5(12)]DDAAF[Nle][PyrS2″]F[Bta]Q-NH2 (staple 1-4, 4-11) [I-1405]
42 | 113 | Ac-[αAllylPro]DL[B5(12)]DDAAF[Nle][PyrS2″]F[Bta]Q-NH2 (staple 1-4, 4-11) [I-1404]
